Test results: US20090041763A1 (UNIVERSITY OF ULSAN FOUNDATION FOR INDUSTRY COOPERATION, published 2009)

Molecular target: T1, 4-1BB-GST fusion protein (human 4-1BB fused to glutathione-S-transferase, expressed in E. coli) (human, UniProt Q07011 24-186)
T1 construct: The order of the parts follows the printed name 4-1BB-GST; not shown: glutathione-S-transferase (GST) from the pGEX3 vector (Pharmacia)
Test: ELISA, transfectant culture supernatant on 4-1BB-GST antigen; reference is 293 EBNA cultured supernatant
Protocol: The completely humanized sequence to constant region was subcloned to pcDNA, a eukaryote expressing vectors, transfected into 293EBNA cells and serial analyses i.e., ELISA and western blotting analysis were performed using by the cell medium. 4-1BB-GST was used as an antigen for ELISA and each 50 numbers of transfectant medium was used therein.

fold over negative control (ELISA): ~15 times
B1: completely humanized antibody HBBK4-75 (H2L2) (antibody, V domains shown)
VH: QVQLQQSGAEVIKPGASVKLSCKASGYTFSSYWMHWVRQAPGQGLEWIGEINPGNGHTNYNEKFKSRATLTGDTSTSTVYMELSSLRSEDTAVYYCARSFTTARAFAYWGQGTLVTVSS
VL: DIVMTQSPAFLSVTPGEKVTITCRASQTISDYLHWYQQKPDQAPKLLIKYASQSISGIPSRFSGSGSGTDFTFTISSLEAEDAATYYCQDGHSFPPTFGQGTKLEIKT
notes: the VH is the same in both; also called clone 75; HBBK4-75/pcDNA
